Source: patent publication US20050064518A1 (PURDUE PHARMA L P, published 2005)

T1: O772P 3-repeat TM on transfected NIH/3T3 cells (human)
T1 construct: also called NIH/3T3 O772P 3-repeat
T1 chain: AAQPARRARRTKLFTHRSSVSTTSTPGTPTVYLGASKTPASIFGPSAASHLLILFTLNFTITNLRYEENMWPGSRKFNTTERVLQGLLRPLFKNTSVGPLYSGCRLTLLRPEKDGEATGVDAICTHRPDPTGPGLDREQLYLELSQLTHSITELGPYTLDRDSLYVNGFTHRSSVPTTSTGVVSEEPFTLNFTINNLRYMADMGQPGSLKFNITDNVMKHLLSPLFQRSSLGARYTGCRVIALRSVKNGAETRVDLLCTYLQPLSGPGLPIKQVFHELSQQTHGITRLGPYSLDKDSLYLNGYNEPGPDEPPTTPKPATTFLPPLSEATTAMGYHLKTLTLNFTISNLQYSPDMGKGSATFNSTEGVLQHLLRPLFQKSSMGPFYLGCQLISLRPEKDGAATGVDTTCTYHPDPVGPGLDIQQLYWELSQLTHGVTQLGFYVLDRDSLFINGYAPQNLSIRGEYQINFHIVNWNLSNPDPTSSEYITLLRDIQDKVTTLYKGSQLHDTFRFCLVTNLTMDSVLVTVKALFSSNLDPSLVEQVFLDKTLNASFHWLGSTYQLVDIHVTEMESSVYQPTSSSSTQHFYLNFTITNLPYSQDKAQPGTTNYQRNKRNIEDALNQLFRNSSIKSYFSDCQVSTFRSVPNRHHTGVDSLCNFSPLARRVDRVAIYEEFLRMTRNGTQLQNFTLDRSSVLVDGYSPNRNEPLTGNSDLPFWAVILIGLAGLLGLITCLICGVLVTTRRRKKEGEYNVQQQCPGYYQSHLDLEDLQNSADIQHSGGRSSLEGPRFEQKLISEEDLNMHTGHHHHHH


Experiments:
[1] = target: T2, shed CA 125/O772P polypeptide (human, UniProt Q8WXI7 1-14401, limits assumed); assay: western blot of OVCAR-3 conditioned media (Time 0, 1 hour, 6 hours, Day 1, Day 2, Day 3), chemiluminescence
T2 construct: OVCAR-3 conditioned medium in the western blot; also called high molecular weight species in OVCAR-3 supernatant

[2] = target: T1, O772P 3-repeat TM on transfected …; assay: flow cytometry, NIH/3T3 cells expressing O772P 3-repeat TM; Ab 0.5 µg/ml
Method: Cells (OVCAR-3 (ATCC Accession No. HTB-161), SK-OV3 (ATCC Accession No. HTB-77), NIH/3T3 (ATCC Accession No. CRL-1658), and NIH/3T3 cells transfected with a sequence that expresses O772P 3-repeat protein (SEQ ID NO:2)) were removed from culture plates by digestion with trypsin (0.25%). The cells were counted and viability was assessed by trypan blue (0.2%) exclusion. Cells were then centrifuged (500×g, 5 min) and resuspended in FACS buffer (1×DPBS containing 1% BSA and 0.1% sodium azide) to a concentration between 5-10×10⁷ cells/ml. Cells were then distributed at a volume of 100 μL/well into 96-well round bottom plates and centrifuged at 500×g for 3 minutes. Antibody supernatant was removed by aspiration, and 50 μl hybridoma supernatants diluted to 1 μg/ml and 0.5 μg/μl in FACS buffer and was added to each well containing cells. Murine IgG1 kappa (Sigma, St. Louis, Mo.) (either 2.0, 1.0, 0.5, 0.1 μg/μl) was included as a negative control and OC125 and M11 (DAKO Corp, Carpinteria, Calif.) were included as positive controls. Plates were incubated for 30 minutes at 4° C. with rocking. Cells were subsequently washed 2 times with FACS buffer (200 μl/well), with centrifugation and buffer aspiration following each wash. Goat anti-mouse IgG (Fc)-biotin (Sigma, St. Louis, Mo.) was diluted 1:1000 in FACS buffer and 50 μl was added to each well containing cells. Plates were incubated 30 minutes at 4° C. with rocking. Cells were then washed with FACS buffer as above. Streptavidin-Alexa-Four 488 (Molecular Probes, Eugene, Oreg.) was diluted 1:1000 into FACS buffer and 50 μl was added to each well containing cells. Plates were then incubated 30 minutes at 4° C. with […]. Cells were then washed with FACS buffer, as above. Cells were then resuspended in 1 ml of FACS buffer and transferred to Falcon 2052 tubes and analyzed on a Becton-Dickinson Immunocytometry Systems FACSCalibur flow cytometer (San Jose, Calif.).

[3] = target: T1, O772P 3-repeat TM on transfected …; assay: flow cytometry, NIH/3T3 cells expressing O772P 3-repeat TM; Ab 2 µg/ml

| % positive cells [2] [%] | % positive cells [3] [%] | Binder | binding result [1] |
| --- | --- | --- | --- |
| 75 | 86 | monoclonal antibody 368.1 (antibody, V domains shown, Murine hybridoma antibody) VH: EVQLQQSGPELVRTGASVKISCKASGYSFTGFYMHWVKQSLGKSLEWIGYVSCYTGATTYTQKFKGKATFTVDTSSSTAYMQLNSLTSEDSAVYYCAREGDYYSMDFWGQGTSVTVSS VL: DVVMTQTPLSLPVSLGDQASISCRSSQSLERTNGNTYLHWYLQKPGQSPKLLIYKVSSRFSGVPDRFSGSGSGTDFTLKISRVEAEDLGIYFCSQTTHGPPTCGGGTKLEIK | no binding (tested: Day 3 conditioned medium) |
| 63 | 83 | monoclonal antibody 117.1 (antibody, V domains shown, Murine hybridoma antibody) VH: QVTLKESGPGILQPSQTLSLTCSFSGFSLSTPGMGVGWIRQPSGKGLEWLAHIWWDDFKRDNPALKSRLTISKDTSSSQVFLKIASVDTADTATYYCVRVDGNFLSWYFDVWGAGTTVTVSS VL: DAVMTQTPLSLPVSLGDQASISCRSSQSLVHSNGNTYLHWYLQKPGQSPKLLIYKVSNRFSGVPDRFSGSGSGTDFTLRISRVEAEDLGVYFCSQSRYVPWTFGGGTKLEIK |  |
| 85 | 89 | monoclonal antibody 501.1 (antibody, V domains shown, Murine hybridoma antibody) VH: QIQLVQSGPELKKPGETVQISCKASGYIFTDYGMNWVKQAPGKGLKWMGCINTYTGETIYSDDFRGRFAISLETSASTAFIQINNLKNEDAATYFCARGNYRDAIDYWGQGTSVTVSS VL: DIKMTQSPSSIYASLGERVTITCKASQDIKSYLSWYQQKPWKSPKTLIYYATTLADGVPSRFSGSGSGQDYSLIINSLESDDIATYFCLHHDESPFTFGSGTKLEI |  |
